Laboratory results: PMC8459022 (Frontiers in Plant Science, 2021)

Legend:
[1] = molecular target: T1, recombinant human PD-1 His tag protein (Homo sapiens, UniProt Q15116); assay: SPR; Biacore T200, antibody (3 ug/ml) captured on protein G sensor chip in HBS-EP; single-cycle kinetics with human PD-1 His tag at 10, 20, 40, 80 and 160 nM, 30 ul/min, 60 s association, 120 s dissociation; Langmuir 1:1 model; conditions: both partners purified
T1 construct: human programmed cell death protein 1 (PD-1), recombinant, His tag; as recalled the catalogue product is the extracellular domain of PD-1 with a C-terminal His tag; also called programmed cell death protein 1; source: bought: R&D Systems (8986-PD)
T1 sequence (Q15116 25-170): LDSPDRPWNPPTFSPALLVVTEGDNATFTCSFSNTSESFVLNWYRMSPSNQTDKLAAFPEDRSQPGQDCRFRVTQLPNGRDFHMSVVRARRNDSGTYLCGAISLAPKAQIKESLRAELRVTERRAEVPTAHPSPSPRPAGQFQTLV

[2] = molecular target: T1, recombinant human PD-1 His tag protein; assay: cell-based or functional assay
[3] = molecular target: T2, recombinant human PD-1 His tag protein (Homo sapiens, UniProt Q15116); assay: SPR; Biacore T200; antibodies (3 ug/ml in HBS-EP) captured on a protein G sensor chip; human PD-1 His tag injected at 10, 20, 40, 80 and 160 nM, single-cycle kinetics, 30 ul/min, 60 s association, 120 s dissociation; Langmuir 1:1 model; conditions: both partners purified
T2 construct: programmed cell death protein 1 (PD-1), human; recombinant, R&D Systems 8986-PD; also called programmed cell death protein 1; source: bought: R&D Systems
T2 sequence (Q15116 25-170): as above

Row | Kd [1] [nM] | PD-1/PD-L1 blockade bioassay (luciferase reporter; Jurkat/PD-1 effector cells with CHO-K1/PD-L1 cells, 6 h); EC50 of blocking PD-1 with PD-L1 [2] [µg/mL] | koff [3] [s⁻¹] | kon [3] [M⁻¹ s⁻¹] | Binder
1 | 8.51 | 0.147 |  |  | plant-produced Pembrolizumab (antibody, V domains shown, Pembrolizumab heavy chain; DrugBank DB09037; Pembrolizumab light chain (kappa); IgG4 kappa antibody; assembled as full IgG (150 kDa) by non-reducing SDS-PAGE and SEC; also called Pem WT; anti-human PD-1 monoclonal antibody produced in Nicotiana benthamiana; copies: 2 + 2) VH: QVQLVQSGVEVKKPGASVKVSCKASGYTFTNYYMYWVRQAPGQGLEWMGGINPSNGGTNFNEKFKNRVTLTTDSSTTTAYMELKSLQFDDTAVYYCARRDYRFDMGFDYWGQGTTVTVSS VL: EIVLTQSPATLSLSPGERATLSCRASKGVSTSGYSYLHWYQQKPGQAPRLLIYLASYLESGVPARFSGSGSGTDFTLTISSLEPEDFAVYYCQHSRDLPLTFGGGTKVEIK
2 | 8.26 | 0.147 |  |  | Keytruda (mammalian cell-produced commercial Pembrolizumab) (antibody, V domains shown, Pembrolizumab heavy chain; as the heavy chain of m1 without the C-terminal SEKDEL; DrugBank DB09037; Pembrolizumab light chain; as the light chain of m1; Commercial drug product used as the positive control and comparator; source: bought: commercial Keytruda, mammalian cell-produced) VH: QVQLVQSGVEVKKPGASVKVSCKASGYTFTNYYMYWVRQAPGQGLEWMGGINPSNGGTNFNEKFKNRVTLTTDSSTTTAYMELKSLQFDDTAVYYCARRDYRFDMGFDYWGQGTTVTVSS VL: EIVLTQSPATLSLSPGERATLSCRASKGVSTSGYSYLHWYQQKPGQAPRLLIYLASYLESGVPARFSGSGSGTDFTLTISSLEPEDFAVYYCQHSRDLPLTFGGGTKVEIK
3 |  |  | 0.00339 | 410000 | commercial Pembrolizumab (Keytruda) (antibody, V domains shown, Pembrolizumab heavy chain; as the heavy chain of Wm1 without the C-terminal SEKDEL; Pembrolizumab light chain; as the light chain of Wm1; The commercial drug; also called mammalian cell-produced Pembrolizumab; source: bought: commercial Pembrolizumab (Keytruda), mammalian cell-produced) VH: QVQLVQSGVEVKKPGASVKVSCKASGYTFTNYYMYWVRQAPGQGLEWMGGINPSNGGTNFNEKFKNRVTLTTDSSTTTAYMELKSLQFDDTAVYYCARRDYRFDMGFDYWGQGTTVTVSS VL: EIVLTQSPATLSLSPGERATLSCRASKGVSTSGYSYLHWYQQKPGQAPRLLIYLASYLESGVPARFSGSGSGTDFTLTISSLEPEDFAVYYCQHSRDLPLTFGGGTKVEIK
